The source of these data is patent publication US20230322924A1 (Janssen / Centocor, published 2023).

Assay [1] has as its target T1, human CD3 on human T cells (human, UniProt P07766 23-207).
T1 construct: Native TCR-CD3 complex on cells; also called primary human T cells; human pan T cells
In words: flow cytometry, primary human T cells, AF647 anti-human IgG F(ab')2 secondary. On the technique in general: A flow cytometer gives signals particle by particle.
Experimental: The 80 mutant clones were assayed for binding to primary human T cells (FIGS. 7 and 8). […] The plates were centrifuged at 300×g for 5 minutes to pellet the cells and the supernatant removed. The plate was gently vortexed briefly to resuspend the cells.

Assay [2] addresses T2, N-terminal CD3ε peptide.
T2 construct: domain: N-terminal CD3ε peptide
In words: Biacore 8K SPR, antibody captured on anti-human Ig, peptide as analyte. Here is the method: Kinetic rate constants were measured by SPR performed using Biacore 8K (GE Healthcare) and anti-human Fc biosensor surfaces. Anti-human immunoglobulin antibodies were covalently coupled to the surface of a CM4 sensor chip (GE Healthcare). Antibodies of interest were captured on the anti-human immunoglobulin sensor chip, followed by injection of N-terminal CD3ε peptide at various concentrations in HEPES Buffered Saline containing 0.05% surfactant P20 (Tween™ 20) and 100 ug/mL BSA. The surface was regenerated with 2 pulses injections of 30 μL of 0.8% phosphoric acid at 100 μL/min. Data reported is the difference in SPR signal between the flow cell containing the captured antibody and a reference cell without captured antibody. Additional instrumental contributions to the signal were removed by subtraction of the data from the blank injection from the reference-subtracted signal. The data were analyzed by fitting association and dissociation phases at all concentrations (global fit) with a 1:1 binding model using the Biaevaluation software (Biacore, Inc.). Data is reported as average+95% CI (Confidence Interval) which is calculated by t value for 95% CI*stdev/square root of the number of replicates.
Background: In SPR one partner is held on a chip, and binding of the other changes the refractive index at the surface.

Assay [3] deals with T3, Soy Trypsin Inhibitor (soy, UniProt P01070 25-205).
T3 construct: also called STI
T3 sequence (looked up): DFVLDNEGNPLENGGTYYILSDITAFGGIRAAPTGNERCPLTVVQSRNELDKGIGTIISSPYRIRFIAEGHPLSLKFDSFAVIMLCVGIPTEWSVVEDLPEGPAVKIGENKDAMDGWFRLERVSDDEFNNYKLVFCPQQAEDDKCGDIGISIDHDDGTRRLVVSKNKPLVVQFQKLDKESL
In words: Biacore 8K non-specific binding test, antibody over immobilised protein. As to the method:
(§1) Non-specific binding of the lead molecule to unrelated surfaces is determined by biosensor technology (Biacore 8K). Antibody is passed over SPR surfaces coated with unrelated proteins. […] Irrelevant surfaces include negatively charged protein (Soy Trypsin Inhibitor), positively charged protein (Lysozyme and β-defensin), hydrophobic (Rh-integrin a4b7), human IgG, sticky protein (Rh-CD19). Proper controls are used in this experiment. Lead is flown over two surfaces, one is a blank and the other has a molecule directly immobilized. The response unit (RU) level is determined by subtracting the blank RU from the test surface RU. […] A response unit ≥100 predicts high risks for non-specific binding to charged/hydrophobic/IgG surfaces which would create challenges during manufacturing and translate to poor PK properties.

For assay [4], the target named is T4, B-Defensin-3.
T4 construct: also called β-defensin
The description is as above. Here is the method:
as §1

The target of assay [5] is Human IgG. The assay is described as above. Here is the method: as §1
Assay [6] deals with Lysozyme. The description is as above. As to the method: as §1
The target in assay [7] is rh-Integrin a4b7 (UniProt P13612 34-977; P26010 20-723, limits assumed). The description is as above. As to the method: as §1
The target in assay [8] is T5, rh-CD19 (UniProt P15391 20-291, limits assumed).
T5 sequence (looked up): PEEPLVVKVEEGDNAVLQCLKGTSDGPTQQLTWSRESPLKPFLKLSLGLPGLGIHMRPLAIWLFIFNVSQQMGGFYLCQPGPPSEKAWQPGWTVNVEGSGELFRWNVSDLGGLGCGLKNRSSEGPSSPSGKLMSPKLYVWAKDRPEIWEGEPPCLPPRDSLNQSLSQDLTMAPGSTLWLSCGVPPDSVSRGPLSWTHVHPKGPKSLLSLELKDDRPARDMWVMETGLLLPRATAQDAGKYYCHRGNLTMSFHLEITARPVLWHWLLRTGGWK
The assay is described as above. As to the method: as §1

In assay [9] the target is T6, human PSMA on cells (LNCaP) (human, UniProt Q04609 1-750).
T6 construct: whole, on cells; also called LNCaP cells
In words: flow cytometry on LNCaP cells. Here is the method:
PSMA×CD3 bispecific antibodies were tested for binding to PSMA positive cell line, LNCAP, to PSMA negative cell line, PC3. To assess the binding capabilities of the PSMA bispecific antibodies, the cell-binding assay was utilized (described previously). Bispecific antibodies were normalized for protein concentration and then incubated with the same number of cells expressing either human or cyno PSMA. The MFI at each concentration was collected by flow cytometry and plotted as a function of concentration. Data was transformed via log 10 and then plotted. Nonlinear regression of binding curves was done to determine EC50s.

The target of assay [10] is T7, human CD33, full length, on cells (human, UniProt P20138 18-364).
T7 construct: SH2 and OCIAML3 carry SNP rs12459419 (hetero-/homozygous), which leads to a form without the V domain; also called Human CD33 (HEK293F transfectants); CD33 on AML cell lines KG1, SH2, OCIAML3
In words: flow cytometry on CD33 expressing HEK293F cells. Here is the method: OMNIRat antibodies identified via immunization, v-region cloned and subsequently expressed and purified were characterized further for binding to CD33 expressing cells and binding to recombinant antigens. The purified antibodies were assessed for binding to stably transfected HEK293F cells expressing human CD33 or cyno CD33 (generation described above) along with the parental HEK293F as negative control. Cells were harvested from tissue culture flasks using non-enzymatic dissociation buffer (Thermo Scientific). The flasks were rinsed twice with PBS and dissociation buffer was added to the flask, and the flask was incubated for 10 minutes at 37° C. until the cells became non-adherent. The cells were centrifuged at 300 g for 5 minutes and resuspended at 1.0×10⁶ cells/ml in staining buffer (Becton Dickinson; Franklin Lakes, NJ). 50,000 cells/well of each cell type was plated in 50 μl of staining buffer in round bottom plates (Becton Dickinson). […] 30 μl running buffer containing Sytox Green live/dead dye (ThermoFisher) was added to all wells with cells and the plates were read on an iQue IntelliCyt flow cytometer. […] Antibody binding was assessed by the mean fluorescence intensity in the AF647 channel.

Assay [11] addresses T8, Human CD33 ECD-HSA (human).
T8 construct: CD33 ECD fused at the C-terminus to monomeric HSA (C58S) and a six-histidine tag; also called C33W2; huCD33 ECD-HSA
In words: SPRi off-rate screen (IBIS MX96).

In assay [12] the target is T9, Human CD33-V-HSA (human).
T9 construct: V domain of human CD33 fused to HSA; also called C33W3; huCD33-V-HSA
Put plainly: SPRi off-rate screen (IBIS MX96).

T2 sequence (P07766 22-48): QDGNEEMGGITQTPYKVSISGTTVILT
T1 sequence (P07766 23-207 limits assumed): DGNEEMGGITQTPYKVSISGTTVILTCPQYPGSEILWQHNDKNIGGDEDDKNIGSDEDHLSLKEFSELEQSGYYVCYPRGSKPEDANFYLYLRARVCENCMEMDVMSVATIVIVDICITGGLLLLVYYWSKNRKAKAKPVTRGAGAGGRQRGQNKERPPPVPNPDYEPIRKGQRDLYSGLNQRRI
T4 sequence (P81534 23-67): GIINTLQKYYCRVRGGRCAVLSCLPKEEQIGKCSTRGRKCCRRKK
Sequence of Lysozyme (P00698 19-147): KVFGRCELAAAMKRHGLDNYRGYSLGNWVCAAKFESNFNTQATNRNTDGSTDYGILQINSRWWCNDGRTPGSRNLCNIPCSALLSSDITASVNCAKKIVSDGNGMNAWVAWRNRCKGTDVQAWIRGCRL
T6 sequence (Q04609 whole entry): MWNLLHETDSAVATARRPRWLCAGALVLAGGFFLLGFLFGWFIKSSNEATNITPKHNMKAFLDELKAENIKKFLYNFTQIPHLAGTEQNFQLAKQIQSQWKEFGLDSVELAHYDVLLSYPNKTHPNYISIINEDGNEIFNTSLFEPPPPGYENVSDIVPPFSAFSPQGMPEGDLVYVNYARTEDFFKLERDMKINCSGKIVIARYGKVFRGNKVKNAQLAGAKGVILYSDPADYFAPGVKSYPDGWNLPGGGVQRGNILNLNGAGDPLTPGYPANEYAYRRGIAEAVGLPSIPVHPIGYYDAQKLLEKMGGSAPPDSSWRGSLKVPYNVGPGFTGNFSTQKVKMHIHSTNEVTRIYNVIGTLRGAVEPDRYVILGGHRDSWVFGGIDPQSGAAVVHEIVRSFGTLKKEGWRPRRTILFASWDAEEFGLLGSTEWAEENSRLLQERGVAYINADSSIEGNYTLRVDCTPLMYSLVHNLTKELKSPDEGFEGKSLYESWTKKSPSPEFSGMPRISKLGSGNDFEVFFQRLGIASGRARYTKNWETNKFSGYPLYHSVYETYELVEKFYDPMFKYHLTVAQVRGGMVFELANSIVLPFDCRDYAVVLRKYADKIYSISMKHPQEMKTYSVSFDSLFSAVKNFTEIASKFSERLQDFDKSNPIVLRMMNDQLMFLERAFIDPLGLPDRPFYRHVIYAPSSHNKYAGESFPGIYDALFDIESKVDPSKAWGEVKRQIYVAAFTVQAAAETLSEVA
T7 sequence (P20138 18-364 limits assumed): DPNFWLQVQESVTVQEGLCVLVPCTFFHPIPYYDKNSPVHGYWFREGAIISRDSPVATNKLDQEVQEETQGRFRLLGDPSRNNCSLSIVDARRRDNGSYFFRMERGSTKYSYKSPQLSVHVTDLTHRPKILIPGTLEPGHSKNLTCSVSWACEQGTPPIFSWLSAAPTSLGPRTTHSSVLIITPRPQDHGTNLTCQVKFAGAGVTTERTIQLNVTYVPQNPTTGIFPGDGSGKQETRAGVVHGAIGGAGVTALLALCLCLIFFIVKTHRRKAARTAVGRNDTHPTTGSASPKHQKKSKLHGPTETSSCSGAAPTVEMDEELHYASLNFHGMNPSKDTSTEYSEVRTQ

B1: D43G/V48L/L49M/L50I/S62N/Q85E/H89Y LC (with WT HC) (antibody, V domains shown)
VH: QVQLQQSGPRLVRPSQTLSLTCAISGDSVFNNNAAWSWIRQSPSRGLEWLGRTYYRSKWLYDYAVSVKSRITVNPDTSRNQFTLQLNSVTPEDTALYYCARGYSSSFDYWGQGTLVTVSS
VL: QSALTQPASVSGSPGQSITISCTGTSSNIGTYKFVSWYQQHPGKAPKLMIYEVSKRPSGVSNRFSGSKSGNTASLTISGLQAEDEADYYCCSYAGSGTLLFGGGTKLTVL
notes: also called BLW-2E6 variant CD3H219/CD3L136
For B1, in [1], the binding result is recorded as “no binding (tested: 50 nM)”.

B2: CD3B376 (antibody, human IgG4 S228P, lambda, F234A L235A, V domains shown)
VH: QVQLQQSGPRLVRPSQTLSLTCAISGDSVFNNNAAWSWIRQSPSRGLEWLGRTYYRSKWLYDYAVSVKSRITVNPDTSRNQFTLQLNSVTPEDTALYYCARGYSSSFDYWGQGTLVTVSS
VL: QSALTQPASVSGSPGQSITISCTGTSSNIGTYKFVSWYQQHPDKAPKVLLYEVSKRPSGVSSRFSGSKSGNTASLTISGLQAEDQADYHCVSYAGSGTLLFGGGTKLTVLG
notes: Bivalent anti-CD3 parental mAb, IgG4 PAA with F405L and R409K; also called CD3H219/CD3L150
As usually defined, the Kd is the equilibrium constant for the complex coming apart. Lower therefore signals higher affinity. A word on the koff: it is the rate constant with which the complex falls apart. The kon is a measure of how fast the partners come together. Regarding B2, in assay [2], binding was put at a Kd of 26.9 nM. The same molecule came in with a koff in assay [2] of 0.00117 s⁻¹. The molecule also gave a kon in assay [2] of 43300 M⁻¹ s⁻¹. The “response units (RU)” value in [3] was 19.5 RU; in assay [4], 3.1 RU; in assay [5] it was 0.4 RU; in assay [6], 0.2 RU; in [7], 0 RU; in assay [8], 0 RU.

B3: PS3B90 (bispecific antibody, human IgG4 S228P, kappa, lambda, F234A L235A)
heavy 1: not shown
light 1: not shown
heavy 2: QVQLQQSGPRLVRPSQTLSLTCAISGDSVFNNNAAWSWIRQSPSRGLEWLGRTYYRSKWLYDYAVSVKSRITVNPDTSRNQFTLQLNSVTPEDTALYYCARGYSSSFDYWGQGTLVTVSSASTKGPSVFPLAPCSRSTSESTAALGCLVKDYFPEPVTVSWNSGALTSGVHTFPAVLQSSGLYSLSSVVTVPSSSLGTKTYTCNVDHKPSNTKVDKRVESKYGPPCPPCPAPEAAGGPSVFLFPPKPKDTLMISRTPEVTCVVVDVSQEDPEVQFNWYVDGVEVHNAKTKPREEQFNSTYRVVSVLTVLHQDWLNGKEYKCKVSNKGLPSSIEKTISKAKGQPREPQVYTLPPSQEEMTKNQVSLTCLVKGFYPSDIAVEWESNGQPENNYKTTPPVLDSDGSFLLYSKLTVDKSRWQEGNVFSCSVMHEALHNHYTQKSLSLSLGK
light 2: QSALTQPASVSGSPGQSITISCTGTSSNIGTYKFVSWYQQHPDKAPKVLLYEVSKRPSGVSSRFSGSKSGNTASLTISGLQAEDQADYHCVSYAGSGTLLFGGGTKLTVLGQPKAAPSVTLFPPSSEELQANKATLVCLISDFYPGAVTVAWKADSSPVKAGVETTTPSKQSNNKYAASSYLSLTPEQWKSHRSYSCQVTHEGSTVEKTVAPTECS
notes: IgG4 PAA; also called PSMB365 x CD3B376
B3: in assay [9], the binding result is listed as “binds”.

B4: C33B909 (antibody, V domains shown)
VH: EVQLVESGGGLVQPGRSLRLSCVASGFTFDDYAIHWVRQAPGKGLEWVSGLSWNGGNIGYADSVKGRFTISRDNAKNSLYLQMNSLKTEDTAFYYCTKDTPYGDYFDYWGQGTLVTVSS
VL: DIQMTQSPSSVWASVGDRVTITCRASQGISSWLAWYQQQPGKAPNLLIYRSSSLQSGVPSRFSGSGSGTDFTLTISSLQPEDFATYYCQQDNSFPYTFGQGTKLEIK
notes: OmniMouse clone; also called C33H249/C33L115
For B4, in [10], the binding result is reported as “no binding (tested: 60 nM highest tested)”.

B5: C33B836 (antibody, IgG4, V domains shown)
VH: QVQLVQSGSELRKPGASVKVSCKASGYTFTNYAMNWVRQAPGQGLEWMGWINTNTGNPTYAQGFTGRFVFSLDTSVSSAYLQISSLKAEDTAMYYCATDRDRGTDYWGQGTLVTVSS
VL: QSALTQPASVSGSPGQSITISCTGTSSDVGDYNYVSWYQQHPGKVPKLMIYDVSNRPSGVSNRFSGSMSGNTASLTISGLQAEDEADYYCSSYSSSSALEVFGGGTKLTVL
notes: OMNIRat-derived; same V regions as C33B48; also called C33H80/C33L73; C33F53
As for B5, the koff in assay [11] amounted to 5.52e-05 s⁻¹; in assay [12], 3.71e-05 s⁻¹.
